System: MS2 coat protein
Assay: apparent KD of MS2 coat protein; designed switch direction (-1 OFF switch, 1 ON switch): -1; higher = weaker reporter binding
Procedure, shortened: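 Designed RNA switches sharing common flanks were transcribed on Illumina chips by stalled E. coli RNA polymerase. They were titrated with SNAP-549-labelled MS2 coat protein, from 0.7 or 1.5 nM doubling to 3 µM, in Tris-HCl pH 7.5 buffer with KCl, MgCl2, BSA, DTT, tRNA and Tween-20. Titrations ran without input, with 200 uM small-molecule ligand, or with an oligonucleotide input. The apparent KD of each design is the median over its clusters, after curve-fitting of normalised cluster fluorescence.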

[1] = Eterna round: R95, input ligand: FMN 200 uM
[2] = Eterna round: R95, input ligand: microRNA oligo, concentration not stated
[3] = Eterna round: R95, input ligand: none
[4] = input ligand: microRNA oligo, concentration not stated

Sequence	apparent KD of MS2 coat protein (input ligand: FMN 200 uM)	apparent KD of MS2 coat protein (input ligand: none)	apparent KD of MS2 coat protein [1]	apparent KD of MS2 coat protein [2]	apparent KD of MS2 coat protein [3]	apparent KD of MS2 coat protein [4]
CGUAAGCUAGGAUAUGCUUUGGGAAAGCAUUCCUUCGAUAAACUUGAGGAUCACCCAAGUAGAAGGAGCUUACU [salish99_ex2_r4_011] (Eterna round: R97, puzzle: Exclusion 2)	19.5 nM	12.5 nM	–	–	–	–
CGUAAGGUAGGAUAUACAUGAGGAUCACCCAUGUCCCACCCGUUACCUAUGACCAUAUGUAGAAGGACCAAUGC [Exy#10] (Eterna round: R97, puzzle: Exclusion 3)	20.7 nM	22.7 nM	–	–	–	–
CGUACUGAAGUGAGGAUAUUGUCUCGGAUACGAAACAAGAAGGCACAUGAGGAUCACCCAUGUUAACAGUACGA [Malc #30 mod 9] (puzzle: Brourd's mod of Exclusion 4)	–	–	15.2 nM	19.2 nM	14.5 nM	–
CGUCAGUGAGGAUAUGGUAACGUUUACAUGAGGAUCACCCAUGUUUCAUGGGACUAGAGACUAGAAGGUACUGACG [EX5 #42] (Eterna round: R97, puzzle: Exclusion 5)	189 nM	132 nM	–	–	–	–
CGUCUGUAAGGAUAUGGUAGCAUCAACAUGAGGAUCACCCAUGUUACAUGGGACUAGUGAUUAGAAGGUACGAACG [EX5 #56] (Eterna round: R97, puzzle: Exclusion 5)	58.5 nM	80.6 nM	–	–	–	–
CGUCUGUAAGGAUAUGGUUACAUCGACAUGAGGAUCACCCAUGUGACGUGGGACUAGUGAUUAGAAGGUACGAACG [EX5 #65] (Eterna round: R97, puzzle: Exclusion 5)	55.2 nM	59.4 nM	–	–	–	–
CGUCUGUAAGGAUAUGGUUGCAUCGACAUGAGGAUCACCCAUGUAACGUGGGACUAGUGAUUAGAAGGUACGAACG [EX5 #61] (Eterna round: R97, puzzle: Exclusion 5)	110 nM	133 nM	–	–	–	–
CGUGACUCAGGAUAUCUAUAAUAUCACAUGAGGAUCACCCAUGUCCAGCGAAAGCUGGAGGGAGAAGGGAGUCACG [Fiskers Ex 5 - 35] (puzzle: Exclusion 5)	–	–	32.8 nM	164 nM	146 nM	–
CGUGACUCAGGAUAUUCAUAAUAUCACAUGAGGAUCACCCAUGUCCAGCGAAAGCUGGAGGGAGAAGGGAGUCACG [Fiskers Ex 5 - 37] (puzzle: Exclusion 5)	–	–	56.7 nM	151 nM	99.6 nM	–
CGUGACUGAGGAUAUCUAUAAUAUCACAUGAGGAUCACCCAUGUCCAGCGAAAGCUGGAAGGAGAAGGCAGUCACG [Fiskers Ex 5 - 34] (puzzle: Exclusion 5)	–	–	39.3 nM	21.4 nM	25.1 nM	–
CGUGAGCGCGUCAGGAUAUGGCGGCGGCGGCGGCGCCAGAAGGGACAUGAGGAUCACCCAUGUUGCGUGCGUGG [Prefect Broudrd's mod of Exclusion] (Eterna round: R97, puzzle: Brourd's mod of Exclusion 4)	73 nM	39.3 nM	–	–	–	–
CGUGGACAUAACAAGCUUUACAUGAGGAUCACCCAUGUGAUCAUGCUCGUCUUAUGGUCCACGAAUUAAUUAAUUAG [Stov1/6-C2] (Eterna round: R97, puzzle: Sensor, turn-off variant 1)	19.2 nM	18.3 nM	–	–	–	–
CGUGUCUUUCACGUGAGUGGUGGGUGCAACAGGUGGGAAACAUGAGGAUCACCCAUGUCCUCACUUGCUCGUCUUUU [Grok-var2-03] (puzzle: Sensor v3, turn-off variant 2)	–	–	27.1 nM	109 nM	26.1 nM	–
CGUGUCUUUCACGUGAGUGGUGGGUGCAACAGGUGGGUUACAUGAGGAUCACCCAUGUCCUCACUUGCUCGUCUUUU [Grok-var2-04] (puzzle: Sensor v3, turn-off variant 2)	–	–	36.1 nM	109 nM	37.2 nM	–
CGUGUGUGAGGAUAUGACAAUGGUAUCUUCGGAUACCAUUGUCAGAAGGUACAUGAGGAUCACCCAUGUAGAUC [Exclusion 4 - Mod Brourd Ex 4-3: 20 v.2] (Eterna round: R96, puzzle: Exclusion 4)	115 nM	59.8 nM	–	–	–	41.4 nM
CGUGUGUGAGGAUAUGACAAUGGUAUCUUCGGAUACCAUUGUCAGAAGGUACAUGAGGAUCACCCAUGUAGAUC [Exclusion 4 - Mod Brourd Ex 4-3: 20 v.2] (puzzle: Exclusion 4)	–	–	–	35.6 nM	–	–
CGUUCCACAGGAUAUACAAAACGUAUCCCAGGGCUAACAGGACAUGAGGAUCACCCAUGUAGAAGGGUGGAACU [Eternabot (L1) Solution 36] (Eterna round: R97, puzzle: Exclusion 2)	571 nM	674 nM	–	–	–	–

Sequence	apparent KD of MS2 coat protein (input ligand: FMN 200 uM)	apparent KD of MS2 coat protein (input ligand: none)	apparent KD of MS2 coat protein [1]	apparent KD of MS2 coat protein [2]	apparent KD of MS2 coat protein [3]	apparent KD of MS2 coat protein [4]
CGUUCGCGAGGAUAUGCAUUCGAGUCCACUACGUGUCUGGGACUUGAGGAUCACCCAAGUAGAAGGCGCCUCAC [salish99_ex2_r4_648] (Eterna round: R97, puzzle: Exclusion 2)	83.9 nM	135 nM	–	–	–	–
CGUUCUCACGUCAGGAUAUAGGACUUGCACGUGUGCUAGAAGGGACAUGAGGAUCACCCAUGUAAAUAAGAAAG [Quonbi] (Eterna round: R97, puzzle: Brourd's mod of Exclusion 4)	37.5 nM	27.1 nM	–	–	–	–
CGUUCUCGAGUCAGGAUAUCGACUAAUUCCCAAGUCGAGAAGGGACAUGAGGAUCACCCAUGUAAAGAAAAGAA [Ainteedle] (puzzle: Brourd's mod of Exclusion 4)	–	–	118 nM	30.1 nM	30.3 nM	–
CGUUGAUGAGGAUAUCGAUGUUAGUACAUGAGGAUCACCCAUGUUAUCCAAGUGUCGUUUCGAGAAGGUAUUGGAC [LRO-Ex5-20] (puzzle: Exclusion 5)	–	–	–	174 nM	–	–
CUAAACGCAGGAUAUACAUGAGGAUCACCCAUGUUUGGCCAGUAAACAAGUCGUCUUAGUAGAAGGGCGUUUAG [Eternabot (Original) Solution 42] (Eterna round: R97, puzzle: Exclusion 3)	544 nM	40.1 nM	–	–	–	–
CUAAAUCAUGUAGGAUAUGCGUGGCAAAGCUAUGCAGAAGGACAUGAGGAUCACCCAUGUGCUUCCGUCUGAGAACAGACGGUA [Mat - Exclusion NG 1 - Mod of JL - D23] (Eterna round: R96, puzzle: Exclusion NG 1)	306 nM	68.2 nM	–	–	–	49.6 nM
CUAAAUCAUGUAGGAUAUGCGUGGCGAAGCUAUGCAGAAGGACAUGAGGAUCACCCAUGUGCUUCCGUCUGAGUACAGACGGAA [Mat - Exclusion NG 1 - Mod of JL - D25] (Eterna round: R96, puzzle: Exclusion NG 1)	77.2 nM	232 nM	–	–	–	160 nM
CUAACAUGCUGGUGAUCAUACAUGAGGAUCACCCAUGUAACAAGCUUUUUGCUCGUCUUAAUUUAAUUGAUUACUAG [Stov1/8-A3] (Eterna round: R97, puzzle: Sensor, turn-off variant 1)	88.9 nM	113 nM	–	–	–	–
CUAACGAAAGGAUAUAUGGCAUGAGACAUGAGGAUCACCCAUGUGAACCACCUACAGUACAUAGAAGGUUCGCUAG [Eternabot (Original) Solution 18] (Eterna round: R97, puzzle: Exclusion 5)	65.9 nM	94.6 nM	–	–	–	–
CUAAUACAUCAGGAUAUCUUAGCCUAUAGCAUAAGAGAAGGGAUGACAUGAGGAUCACCCAUGUCAAAGGGUGA [eternacac ex6r4 sub20] (Eterna round: R97, puzzle: Exclusion 6)	304 nM	929 nM	–	–	–	–
CUAAUAUAUCAGGAUAUGAUUAUAUGUGUUAGAUCAGAAGGGAUAACAUGAGGAUCACCCAUGUUGUGGAGUGA [JR_Ex6_Sub035] (Eterna round: R97, puzzle: Exclusion 6)	67.3 nM	64.2 nM	–	–	–	–
CUACCCUGAGGAUAUCCACCGUGAUACAUGAGGAUCACCCAUGUUAAUGCCUGAGUUCCCGGAGAAGGCAGAUUCC [Megrez2] (Eterna round: R97, puzzle: Exclusion 5)	27.2 nM	30.5 nM	–	–	–	–
CUAGAUCUUCGGAUCUAGUACAUGAGGAUCACCCAUGUGACGAGUAUAUCCUCAAACAAGCUUUUUGCUCGUCUUAU [Sensor v3 - Turn-off variant 1 - 21] (puzzle: Sensor v3, turn-off variant 1)	–	–	243 nM	237 nM	172 nM	–
CUAGCGAUUGUAGGAUAUCGGACUGUUUCAGUCUGAGAAGGACAUGAGGAUCACCCAUGUGAUGGAUCGUGAGAUCCACGCUAG [JL ENG1 3.80] (Eterna round: R96, puzzle: Exclusion NG 1)	195 nM	27.9 nM	–	–	–	25.7 nM
CUAGCGAUUGUAGGAUAUCGGACUGUUUCAGUCUGAGAAGGACAUGAGGAUCACCCAUGUGGAGGAUCGUGAGAUCCACGCUAG [JL ENG1 3.81] (Eterna round: R96, puzzle: Exclusion NG 1)	136 nM	34.5 nM	–	–	–	24.6 nM
CUAGGGCACAAUUAAGCGCCCUAACAUGAGGAUCACCCAUGUCAGGAUAUGUAGGCAAAGACCCUACAGAAGGGACAUGUCCUA [Artileza] (Eterna round: R96, puzzle: Exclusion NG 3)	393 nM	69.2 nM	–	–	–	46.3 nM

Reference: the supplement of paper PMC9170038
